Tests used:
[1] = biological target: T1, human GREM1 (hGREM1-His; SEQ ID NO: 595) (human, UniProt O60565 25-184); assay: SPR, Biacore T200, 25 C, mAb captured, hGREM1-His injected;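 further: Heparin-supplemented HBS-EP+ used as running buffer, association and dissociation phases followed, Kd computed as koff divided by kon and half-life derived from koff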
T1 construct: also called biotin-hGREM1-His; recombinant human GREM1 protein
T1 sequence: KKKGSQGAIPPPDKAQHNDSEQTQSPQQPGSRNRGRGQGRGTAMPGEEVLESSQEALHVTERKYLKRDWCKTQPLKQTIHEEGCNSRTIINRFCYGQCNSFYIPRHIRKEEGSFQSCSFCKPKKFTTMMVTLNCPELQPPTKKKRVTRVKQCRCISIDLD

[2] = biological target: T2, recombinant human GREM1 (hGREM1-His; C-terminal 10His tagged, R&D, #5190-GR) (human, UniProt O60565 25-184, limits assumed); assay: cell-based or functional assay
T2 sequence: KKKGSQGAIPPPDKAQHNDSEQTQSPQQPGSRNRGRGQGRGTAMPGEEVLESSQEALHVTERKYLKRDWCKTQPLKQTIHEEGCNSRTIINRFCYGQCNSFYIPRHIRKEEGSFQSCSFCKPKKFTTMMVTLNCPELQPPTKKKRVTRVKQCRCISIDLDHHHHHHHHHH

| Binder | Kd [1] [µM] | koff [1] [s⁻¹] | kon [1] [M⁻¹ s⁻¹] | t1/2 [1] [min] | IC50 [M], inhibition of hGREM1-His, W-20-17/BRE-luc luciferase (100 pM hBMP4, 10 nM hGREM1-His) [2] [M] | binding result [1] |
| --- | --- | --- | --- | --- | --- | --- |
| H2bM2890N (antibody, mouse IgG2, V domains shown, H2M prefix = mouse IgG2 Fc (here H2bM); also called H2M2890N) VH: QVQLVESGGGVVQPGRSLRLTCAASGFTFSSFGMHWVRQAPGKGLEWVAIIWYDGSNKYYADSVKGRFTISRDNSKNTLYLQMNSLRAEDTAVYYCAREDNWTRDYFDYWGQGTLVTVSS VL: EIVLTQSPATLSLSPGERATLSCRASQSVSNFLAWYQQKPGQAPRLLIYDASNRATGIPARFSGSGSGTDFTLTISSLEPEDFAVYYCQQRSNWPPLPFGGGTKVEIK | 0.13 | 0.001 | 10000 | 11.6 | 2.1e-09 | – |
| H2bM2891N (antibody, mouse IgG2, V domains shown, H2M prefix = mouse IgG2 Fc (here H2bM); also called H2M2891N) VH: EVQMVESGGGLVQPGGSLRLSCAASRFTLSNYWMGWVRQAPGKGLEWVANIKQDGSEKYYVDSVRGRFTISRDNAKNSLYLQMNSLRAEDTAVYYCARDYDFWRSFDYWGQGTLVTVPS VL: DIQMTQSPSSVSASVGDRVTITCRASQGVSSWLAWYQQTPGKAPKLLIYVVSSLQSGVPSRFSGSGSGTDFTLTINSLQPEDFATYYCQQGNSFPYTFGQGTKLEIK | 0.06 | 0.0012 | 20000 | 9.6 | 1.1e-09 | – |
| H2bM2906N (antibody, mouse IgG2, V domains shown, H2M prefix = mouse IgG2 Fc (here H2bM); also called H2M2906N) VH: EVQMVESGGGLVQPGGSLRLSCAASGFTLSNYWMGWVRQAPGKGLEWVANIKQDGSEKYYVDSVRGRFTISRDNAKNSLYLQMNSLRAEDTAVYYCARDYDFWRSFDYWGQGTLVTVSS VL: DIQMTQSPSSVSASVGDRVTITCRASQGVSSWLAWYQQKPGKTPKLLIYVVSSLQSGVPSRFSGRGSGTDFTLTINSLQPEDFATYYCQQGNSFPYTFGQGTKLEIK | 0.015 | 0.0013 | 80000 | 8.9 | 1.6e-09 | – |
| H2aM2898N (antibody, mouse IgG2, V domains shown, H2M prefix = mouse IgG2 Fc (here H2aM); also called H2M2898N) VH: EVQLVESGGGLVQPGGSLRLSCAASGFTFSIYDMHWVRQATGKGLEWVSGIGNAGDTYYAGSVKGRFTISRENAKNSLYLQMNSLRAGDTAVYYCAREGPNYYYYGMDVWGQGTTVTVSS VL: AIQMTQSPSSLSASVGDRVTITCRASQGIRDDLGWYQQKPGKAPKLLIYAASSLQSGVPSRFSGSGSGTDFTLTISSLQPEDFATYYCLQDYNYPWTFGQGTKVEIK | – | – | – | – | 1.4e-09 | no binding (tested: 11 to 100 nM hGREM1-His injected) |
| H2aM2899N (antibody, mouse IgG2, V domains shown, H2M prefix = mouse IgG2 Fc (here H2aM); also called H2M2899N) VH: QVQLVQSGAEVKKPGASVKVSCKASGFTFTSYDINWVRQATGQGLEWMGWMNPKSGNTDYAQKFLGRVTLTRNTSKSTAYMELSSLRSEDTAVYYCARGKQLVFDYWGQGTLVTVSA VL: not shown | 0.27 | 0.002 | 8000 | 5.8 | 2.1e-09 | – |

— patent publication US20200157194A1 (Regeneron, published 2020)
